The values below come from paper PMC6277039 (Biochemical and biophysical research communications, 2018).

Among the targets are HSPA1A S16P (human, UniProt P0DMV8 1-641, S16P); HSPA1A K71A (human, UniProt P0DMV8 1-641, K71A); HSPA1A I74T (human, UniProt P0DMV8 1-641, I74T); HSPA1A wild-type (WT) (human, UniProt P0DMV8 1-641); HSPA1A S16Y (human, UniProt P0DMV8 1-641, S16Y); HSPA1A R36C (human, UniProt P0DMV8 1-641, R36C); HSPA1A I480N (human, UniProt P0DMV8 1-641, I480N); HSPA1A F592S (human, UniProt P0DMV8 1-641, F592S).

What all share (experiment): ITC

“And” between values parts separate entries of the source, which are not always exact repeats. Identical values can stand only once.

Sequence of HSPA1A K71A (P0DMV8 whole entry K71A): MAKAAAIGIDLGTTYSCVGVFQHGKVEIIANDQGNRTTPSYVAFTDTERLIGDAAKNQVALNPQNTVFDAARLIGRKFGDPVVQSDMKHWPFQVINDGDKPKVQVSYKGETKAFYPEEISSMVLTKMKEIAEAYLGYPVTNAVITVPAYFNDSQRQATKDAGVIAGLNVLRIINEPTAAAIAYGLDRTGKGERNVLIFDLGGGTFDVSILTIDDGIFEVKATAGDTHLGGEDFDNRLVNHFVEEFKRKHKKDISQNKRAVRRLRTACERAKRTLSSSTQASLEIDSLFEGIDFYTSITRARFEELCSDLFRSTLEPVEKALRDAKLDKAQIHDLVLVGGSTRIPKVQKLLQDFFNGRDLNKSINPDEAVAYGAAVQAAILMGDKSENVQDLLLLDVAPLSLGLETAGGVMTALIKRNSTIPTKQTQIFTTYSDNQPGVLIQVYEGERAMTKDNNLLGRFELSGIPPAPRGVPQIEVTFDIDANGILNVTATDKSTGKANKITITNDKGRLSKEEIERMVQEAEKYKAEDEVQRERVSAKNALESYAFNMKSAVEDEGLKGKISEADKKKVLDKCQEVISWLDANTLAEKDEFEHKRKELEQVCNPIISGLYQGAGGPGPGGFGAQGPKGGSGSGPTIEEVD
Sequence of HSPA1A wild-type (WT) (P0DMV8 whole entry): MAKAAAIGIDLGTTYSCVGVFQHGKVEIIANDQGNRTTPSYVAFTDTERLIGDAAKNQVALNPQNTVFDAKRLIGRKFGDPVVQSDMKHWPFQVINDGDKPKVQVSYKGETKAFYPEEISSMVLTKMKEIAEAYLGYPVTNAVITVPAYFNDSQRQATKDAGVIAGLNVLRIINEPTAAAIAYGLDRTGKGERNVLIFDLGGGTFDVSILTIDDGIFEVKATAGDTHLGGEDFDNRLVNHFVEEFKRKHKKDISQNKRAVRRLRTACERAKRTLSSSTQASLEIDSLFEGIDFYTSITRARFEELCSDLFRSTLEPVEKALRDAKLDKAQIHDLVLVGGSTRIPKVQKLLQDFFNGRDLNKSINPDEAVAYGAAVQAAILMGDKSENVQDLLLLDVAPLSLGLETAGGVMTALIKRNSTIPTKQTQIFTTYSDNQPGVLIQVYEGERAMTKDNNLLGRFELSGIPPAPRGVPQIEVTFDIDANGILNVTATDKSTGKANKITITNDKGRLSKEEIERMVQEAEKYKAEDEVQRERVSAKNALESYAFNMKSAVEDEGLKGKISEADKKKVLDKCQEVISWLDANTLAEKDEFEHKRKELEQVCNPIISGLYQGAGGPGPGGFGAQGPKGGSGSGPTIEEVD
Sequence of HSPA1A I480N (P0DMV8 whole entry I480N): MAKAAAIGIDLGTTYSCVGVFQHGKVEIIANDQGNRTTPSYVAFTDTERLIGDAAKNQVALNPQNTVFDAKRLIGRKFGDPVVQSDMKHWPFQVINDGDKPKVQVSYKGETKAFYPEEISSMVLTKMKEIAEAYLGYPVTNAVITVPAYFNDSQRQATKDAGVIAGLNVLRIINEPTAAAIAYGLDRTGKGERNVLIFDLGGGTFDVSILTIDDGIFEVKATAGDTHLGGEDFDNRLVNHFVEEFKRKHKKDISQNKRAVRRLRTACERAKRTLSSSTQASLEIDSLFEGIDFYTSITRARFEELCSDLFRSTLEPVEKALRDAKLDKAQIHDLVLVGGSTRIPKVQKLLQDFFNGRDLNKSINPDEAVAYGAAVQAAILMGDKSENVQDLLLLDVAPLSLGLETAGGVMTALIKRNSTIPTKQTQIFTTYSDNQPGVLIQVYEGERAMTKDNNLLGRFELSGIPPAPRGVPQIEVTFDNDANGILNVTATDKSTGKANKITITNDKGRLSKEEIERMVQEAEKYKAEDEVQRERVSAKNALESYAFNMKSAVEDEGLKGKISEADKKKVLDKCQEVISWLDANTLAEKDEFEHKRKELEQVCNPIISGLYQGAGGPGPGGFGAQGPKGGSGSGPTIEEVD
Sequence of HSPA1A S16P (P0DMV8 whole entry S16P): as the sequence (P0DMV8 whole entry K71A) above, with S16P, A71K counted along it
Sequence of HSPA1A I74T (P0DMV8 whole entry I74T): as the sequence (P0DMV8 whole entry K71A) above, with A71K, I74T counted along it
Sequence of HSPA1A R36C (P0DMV8 whole entry R36C): as the sequence (P0DMV8 whole entry K71A) above, with R36C, A71K counted along it
Sequence of HSPA1A F592S (P0DMV8 whole entry F592S): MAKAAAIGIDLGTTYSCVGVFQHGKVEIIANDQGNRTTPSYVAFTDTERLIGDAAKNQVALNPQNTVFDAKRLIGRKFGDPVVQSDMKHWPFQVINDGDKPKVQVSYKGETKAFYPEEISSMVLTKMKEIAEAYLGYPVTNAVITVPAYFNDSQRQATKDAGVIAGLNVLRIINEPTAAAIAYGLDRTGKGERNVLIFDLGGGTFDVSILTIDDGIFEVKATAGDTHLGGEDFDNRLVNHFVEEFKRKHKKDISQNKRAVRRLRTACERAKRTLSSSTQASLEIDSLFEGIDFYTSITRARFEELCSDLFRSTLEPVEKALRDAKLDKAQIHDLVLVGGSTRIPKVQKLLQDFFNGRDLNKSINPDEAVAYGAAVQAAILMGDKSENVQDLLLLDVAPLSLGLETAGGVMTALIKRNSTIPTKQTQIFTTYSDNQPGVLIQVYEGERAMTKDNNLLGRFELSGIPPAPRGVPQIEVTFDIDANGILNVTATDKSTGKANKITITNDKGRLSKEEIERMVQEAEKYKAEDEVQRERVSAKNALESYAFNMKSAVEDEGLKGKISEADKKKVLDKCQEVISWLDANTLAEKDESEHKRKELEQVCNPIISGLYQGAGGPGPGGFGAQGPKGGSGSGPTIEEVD
Sequence of HSPA1A S16Y (P0DMV8 whole entry S16Y): as the sequence (P0DMV8 whole entry K71A) above, with S16Y, A71K counted along it

Take NIVAKKK [protein substrate (peptide NIVAKKK)]: the Kd was 738 nM and 679 nM and 599 nM with HSPA1A S16P; 528 nM and 615 nM and 635 nM in the test with HSPA1A K71A; 999 nM and 995 nM and 935 nM with HSPA1A I74T; 335 nM and 529 nM and 364 nM with HSPA1A wild-type (WT); 335 nM and 331 nM and 315 nM with HSPA1A S16Y; 576 nM and 472 nM and 509 nM with HSPA1A R36C. The Kd with HSPA1A I480N is 710 nM and 661 nM and 697 nM; with HSPA1A F592S, 559 nM and 500 nM and 374 nM. The dH with HSPA1A S16P was -2.98 kcal/mol and -3.21 kcal/mol and -3.22 kcal/mol; in the test with HSPA1A K71A, -2.77 kcal/mol and -3.32 kcal/mol and -2.86 kcal/mol; with HSPA1A I74T, -4.52 kcal/mol and -4.7 kcal/mol and -4.85 kcal/mol; in the test with HSPA1A wild-type (WT), -6.18 kcal/mol and -4.72 kcal/mol and -4.79 kcal/mol; in the test with HSPA1A S16Y, -10.2 kcal/mol and -9.96 kcal/mol and -9.74 kcal/mol; with HSPA1A R36C it was -3.75 kcal/mol and -3.81 kcal/mol and -3.88 kcal/mol. Besides, the dH in the test with HSPA1A I480N was -4.43 kcal/mol and -5.06 kcal/mol and -4.72 kcal/mol; with HSPA1A F592S, -3.84 kcal/mol and -4.67 kcal/mol and -3.66 kcal/mol. Besides, the “stoichiometry N” value in the test with HSPA1A S16P is 0.991 and 1 and 1.03; with HSPA1A K71A, 0.982 and 1 and 0.989; in the test with HSPA1A I74T it was 0.998 and 0.985 and 1.01; with HSPA1A wild-type (WT), 0.993 and 1 and 1.02; with HSPA1A S16Y, 1.04 and 1.02 and 1.01; with HSPA1A R36C it was 1.03 and 1 and 0.984. The “stoichiometry N” value is 1.02 (2×) and 1.01 in the test with HSPA1A I480N; 1.07 and 1.04 and 1.06 in the test with HSPA1A F592S.

In general, Kd refers to the constant that tells how readily two partners part at equilibrium. Broadly, the stoichiometry N is a count of units in the complex or per binding partner.
